# Data published in US20210388087A1.
# Target: Human CD137 ECD (human)
# Assay: SPR, vs parent H183/L072
# Sequence of Human CD137 ECD (human) (chain, as listed by the source limits assumed): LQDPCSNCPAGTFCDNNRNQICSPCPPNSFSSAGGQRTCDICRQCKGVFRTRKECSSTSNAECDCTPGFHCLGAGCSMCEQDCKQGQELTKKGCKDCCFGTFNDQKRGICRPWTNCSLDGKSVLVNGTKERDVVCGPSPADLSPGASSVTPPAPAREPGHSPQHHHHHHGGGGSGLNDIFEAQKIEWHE
row,Binder,fold change of affinity
1,"dBBDu183H S100aR / dBBDu072L (antibody, name in Kabat numbering, V domains shown) VH: QVQLVESGGGLVQPGRSLRLSCAASGFTFSNAWMHWVRQAPGKGLEWVAQIKDKGNAYAAYYAPSVKGRFTISRDDSKNSIYLQMNSLKTEDTAVYYCHYVHYASARTVLPAFGVDAWGQGTTVTVSS VL: DIVMTQSPLSLPVTPGEPASISCQASQELVHMNRNTYLHWYQQKPGQAPRLLIYKVSNRFPGVPDRFSGSGSGTDFTLKISRVEAEDVGVYYCAQGTSVPFTFGQGTKLEIK",0 fold
2,"dBBDu183H A100fR / dBBDu072L (antibody, name in Kabat numbering, V domains shown) VH: QVQLVESGGGLVQPGRSLRLSCAASGFTFSNAWMHWVRQAPGKGLEWVAQIKDKGNAYAAYYAPSVKGRFTISRDDSKNSIYLQMNSLKTEDTAVYYCHYVHYASASTVLPRFGVDAWGQGTTVTVSS VL: DIVMTQSPLSLPVTPGEPASISCQASQELVHMNRNTYLHWYQQKPGQAPRLLIYKVSNRFPGVPDRFSGSGSGTDFTLKISRVEAEDVGVYYCAQGTSVPFTFGQGTKLEIK",0 fold
3,"dBBDu183H H93F / dBBDu072L (antibody, name in Kabat numbering, V domains shown) VH: QVQLVESGGGLVQPGRSLRLSCAASGFTFSNAWMHWVRQAPGKGLEWVAQIKDKGNAYAAYYAPSVKGRFTISRDDSKNSIYLQMNSLKTEDTAVYYCFYVHYASASTVLPAFGVDAWGQGTTVTVSS VL: DIVMTQSPLSLPVTPGEPASISCQASQELVHMNRNTYLHWYQQKPGQAPRLLIYKVSNRFPGVPDRFSGSGSGTDFTLKISRVEAEDVGVYYCAQGTSVPFTFGQGTKLEIK",0 fold
4,"dBBDu183H S99F / dBBDu072L (antibody, name in Kabat numbering, V domains shown) VH: QVQLVESGGGLVQPGRSLRLSCAASGFTFSNAWMHWVRQAPGKGLEWVAQIKDKGNAYAAYYAPSVKGRFTISRDDSKNSIYLQMNSLKTEDTAVYYCHYVHYAFASTVLPAFGVDAWGQGTTVTVSS VL: DIVMTQSPLSLPVTPGEPASISCQASQELVHMNRNTYLHWYQQKPGQAPRLLIYKVSNRFPGVPDRFSGSGSGTDFTLKISRVEAEDVGVYYCAQGTSVPFTFGQGTKLEIK",0 fold
5,"dBBDu183H F100gR / dBBDu072L (antibody, name in Kabat numbering, V domains shown) VH: QVQLVESGGGLVQPGRSLRLSCAASGFTFSNAWMHWVRQAPGKGLEWVAQIKDKGNAYAAYYAPSVKGRFTISRDDSKNSIYLQMNSLKTEDTAVYYCHYVHYASASTVLPARGVDAWGQGTTVTVSS VL: DIVMTQSPLSLPVTPGEPASISCQASQELVHMNRNTYLHWYQQKPGQAPRLLIYKVSNRFPGVPDRFSGSGSGTDFTLKISRVEAEDVGVYYCAQGTSVPFTFGQGTKLEIK",0 fold
6,"dBBDu183H A100F / dBBDu072L (antibody, name in Kabat numbering, V domains shown) VH: QVQLVESGGGLVQPGRSLRLSCAASGFTFSNAWMHWVRQAPGKGLEWVAQIKDKGNAYAAYYAPSVKGRFTISRDDSKNSIYLQMNSLKTEDTAVYYCHYVHYASFSTVLPAFGVDAWGQGTTVTVSS VL: DIVMTQSPLSLPVTPGEPASISCQASQELVHMNRNTYLHWYQQKPGQAPRLLIYKVSNRFPGVPDRFSGSGSGTDFTLKISRVEAEDVGVYYCAQGTSVPFTFGQGTKLEIK",0 fold
7,"dBBDu183H A102R / dBBDu072L (antibody, name in Kabat numbering, V domains shown) VH: QVQLVESGGGLVQPGRSLRLSCAASGFTFSNAWMHWVRQAPGKGLEWVAQIKDKGNAYAAYYAPSVKGRFTISRDDSKNSIYLQMNSLKTEDTAVYYCHYVHYASASTVLPAFGVDRWGQGTTVTVSS VL: DIVMTQSPLSLPVTPGEPASISCQASQELVHMNRNTYLHWYQQKPGQAPRLLIYKVSNRFPGVPDRFSGSGSGTDFTLKISRVEAEDVGVYYCAQGTSVPFTFGQGTKLEIK",0 fold
8,"dBBDu183H S100aF / dBBDu072L (antibody, name in Kabat numbering, V domains shown) VH: QVQLVESGGGLVQPGRSLRLSCAASGFTFSNAWMHWVRQAPGKGLEWVAQIKDKGNAYAAYYAPSVKGRFTISRDDSKNSIYLQMNSLKTEDTAVYYCHYVHYASAFTVLPAFGVDAWGQGTTVTVSS VL: DIVMTQSPLSLPVTPGEPASISCQASQELVHMNRNTYLHWYQQKPGQAPRLLIYKVSNRFPGVPDRFSGSGSGTDFTLKISRVEAEDVGVYYCAQGTSVPFTFGQGTKLEIK",0 fold
9,"dBBDu183H D101R / dBBDu072L (antibody, name in Kabat numbering, V domains shown) VH: QVQLVESGGGLVQPGRSLRLSCAASGFTFSNAWMHWVRQAPGKGLEWVAQIKDKGNAYAAYYAPSVKGRFTISRDDSKNSIYLQMNSLKTEDTAVYYCHYVHYASASTVLPAFGVRAWGQGTTVTVSS VL: DIVMTQSPLSLPVTPGEPASISCQASQELVHMNRNTYLHWYQQKPGQAPRLLIYKVSNRFPGVPDRFSGSGSGTDFTLKISRVEAEDVGVYYCAQGTSVPFTFGQGTKLEIK",0 fold
10,"dBBDu183H A98F / dBBDu072L (antibody, name in Kabat numbering, V domains shown) VH: QVQLVESGGGLVQPGRSLRLSCAASGFTFSNAWMHWVRQAPGKGLEWVAQIKDKGNAYAAYYAPSVKGRFTISRDDSKNSIYLQMNSLKTEDTAVYYCHYVHYFSASTVLPAFGVDAWGQGTTVTVSS VL: DIVMTQSPLSLPVTPGEPASISCQASQELVHMNRNTYLHWYQQKPGQAPRLLIYKVSNRFPGVPDRFSGSGSGTDFTLKISRVEAEDVGVYYCAQGTSVPFTFGQGTKLEIK",0 fold
11,"dBBDu183H T100bF / dBBDu072L (antibody, name in Kabat numbering, V domains shown) VH: QVQLVESGGGLVQPGRSLRLSCAASGFTFSNAWMHWVRQAPGKGLEWVAQIKDKGNAYAAYYAPSVKGRFTISRDDSKNSIYLQMNSLKTEDTAVYYCHYVHYASASFVLPAFGVDAWGQGTTVTVSS VL: DIVMTQSPLSLPVTPGEPASISCQASQELVHMNRNTYLHWYQQKPGQAPRLLIYKVSNRFPGVPDRFSGSGSGTDFTLKISRVEAEDVGVYYCAQGTSVPFTFGQGTKLEIK",0 fold
12,"dBBDu183H H96R / dBBDu072L (antibody, name in Kabat numbering, V domains shown) VH: QVQLVESGGGLVQPGRSLRLSCAASGFTFSNAWMHWVRQAPGKGLEWVAQIKDKGNAYAAYYAPSVKGRFTISRDDSKNSIYLQMNSLKTEDTAVYYCHYVRYASASTVLPAFGVDAWGQGTTVTVSS VL: DIVMTQSPLSLPVTPGEPASISCQASQELVHMNRNTYLHWYQQKPGQAPRLLIYKVSNRFPGVPDRFSGSGSGTDFTLKISRVEAEDVGVYYCAQGTSVPFTFGQGTKLEIK",0 fold
13,"dBBDu183H A98R / dBBDu072L (antibody, name in Kabat numbering, V domains shown) VH: QVQLVESGGGLVQPGRSLRLSCAASGFTFSNAWMHWVRQAPGKGLEWVAQIKDKGNAYAAYYAPSVKGRFTISRDDSKNSIYLQMNSLKTEDTAVYYCHYVHYRSASTVLPAFGVDAWGQGTTVTVSS VL: DIVMTQSPLSLPVTPGEPASISCQASQELVHMNRNTYLHWYQQKPGQAPRLLIYKVSNRFPGVPDRFSGSGSGTDFTLKISRVEAEDVGVYYCAQGTSVPFTFGQGTKLEIK",0 fold
14,"dBBDu183H L100dR / dBBDu072L (antibody, name in Kabat numbering, V domains shown) VH: QVQLVESGGGLVQPGRSLRLSCAASGFTFSNAWMHWVRQAPGKGLEWVAQIKDKGNAYAAYYAPSVKGRFTISRDDSKNSIYLQMNSLKTEDTAVYYCHYVHYASASTVRPAFGVDAWGQGTTVTVSS VL: DIVMTQSPLSLPVTPGEPASISCQASQELVHMNRNTYLHWYQQKPGQAPRLLIYKVSNRFPGVPDRFSGSGSGTDFTLKISRVEAEDVGVYYCAQGTSVPFTFGQGTKLEIK",0 fold
15,"dBBDu183H G100hR / dBBDu072L (antibody, name in Kabat numbering, V domains shown) VH: QVQLVESGGGLVQPGRSLRLSCAASGFTFSNAWMHWVRQAPGKGLEWVAQIKDKGNAYAAYYAPSVKGRFTISRDDSKNSIYLQMNSLKTEDTAVYYCHYVHYASASTVLPAFRVDAWGQGTTVTVSS VL: DIVMTQSPLSLPVTPGEPASISCQASQELVHMNRNTYLHWYQQKPGQAPRLLIYKVSNRFPGVPDRFSGSGSGTDFTLKISRVEAEDVGVYYCAQGTSVPFTFGQGTKLEIK",0 fold

# Other lines, results leading:
row,fold change of affinity,Binder
1,0 fold,"dBBDu183H V95R / dBBDu072L (antibody, name in Kabat numbering, V domains shown) VH: QVQLVESGGGLVQPGRSLRLSCAASGFTFSNAWMHWVRQAPGKGLEWVAQIKDKGNAYAAYYAPSVKGRFTISRDDSKNSIYLQMNSLKTEDTAVYYCHYRHYASASTVLPAFGVDAWGQGTTVTVSS VL: DIVMTQSPLSLPVTPGEPASISCQASQELVHMNRNTYLHWYQQKPGQAPRLLIYKVSNRFPGVPDRFSGSGSGTDFTLKISRVEAEDVGVYYCAQGTSVPFTFGQGTKLEIK"
2,0 fold,"dBBDu183H T100bR / dBBDu072L (antibody, name in Kabat numbering, V domains shown) VH: QVQLVESGGGLVQPGRSLRLSCAASGFTFSNAWMHWVRQAPGKGLEWVAQIKDKGNAYAAYYAPSVKGRFTISRDDSKNSIYLQMNSLKTEDTAVYYCHYVHYASASRVLPAFGVDAWGQGTTVTVSS VL: DIVMTQSPLSLPVTPGEPASISCQASQELVHMNRNTYLHWYQQKPGQAPRLLIYKVSNRFPGVPDRFSGSGSGTDFTLKISRVEAEDVGVYYCAQGTSVPFTFGQGTKLEIK"
3,0 fold,"dBBDu183H Y97R / dBBDu072L (antibody, name in Kabat numbering, V domains shown) VH: QVQLVESGGGLVQPGRSLRLSCAASGFTFSNAWMHWVRQAPGKGLEWVAQIKDKGNAYAAYYAPSVKGRFTISRDDSKNSIYLQMNSLKTEDTAVYYCHYVHRASASTVLPAFGVDAWGQGTTVTVSS VL: DIVMTQSPLSLPVTPGEPASISCQASQELVHMNRNTYLHWYQQKPGQAPRLLIYKVSNRFPGVPDRFSGSGSGTDFTLKISRVEAEDVGVYYCAQGTSVPFTFGQGTKLEIK"
4,0 fold,"dBBDu183H V100cF / dBBDu072L (antibody, name in Kabat numbering, V domains shown) VH: QVQLVESGGGLVQPGRSLRLSCAASGFTFSNAWMHWVRQAPGKGLEWVAQIKDKGNAYAAYYAPSVKGRFTISRDDSKNSIYLQMNSLKTEDTAVYYCHYVHYASASTFLPAFGVDAWGQGTTVTVSS VL: DIVMTQSPLSLPVTPGEPASISCQASQELVHMNRNTYLHWYQQKPGQAPRLLIYKVSNRFPGVPDRFSGSGSGTDFTLKISRVEAEDVGVYYCAQGTSVPFTFGQGTKLEIK"
5,0 fold,"dBBDu183H V95F / dBBDu072L (antibody, name in Kabat numbering, V domains shown) VH: QVQLVESGGGLVQPGRSLRLSCAASGFTFSNAWMHWVRQAPGKGLEWVAQIKDKGNAYAAYYAPSVKGRFTISRDDSKNSIYLQMNSLKTEDTAVYYCHYFHYASASTVLPAFGVDAWGQGTTVTVSS VL: DIVMTQSPLSLPVTPGEPASISCQASQELVHMNRNTYLHWYQQKPGQAPRLLIYKVSNRFPGVPDRFSGSGSGTDFTLKISRVEAEDVGVYYCAQGTSVPFTFGQGTKLEIK"
6,0 fold,"dBBDu183H V100iR / dBBDu072L (antibody, name in Kabat numbering, V domains shown) VH: QVQLVESGGGLVQPGRSLRLSCAASGFTFSNAWMHWVRQAPGKGLEWVAQIKDKGNAYAAYYAPSVKGRFTISRDDSKNSIYLQMNSLKTEDTAVYYCHYVHYASASTVLPAFGRDAWGQGTTVTVSS VL: DIVMTQSPLSLPVTPGEPASISCQASQELVHMNRNTYLHWYQQKPGQAPRLLIYKVSNRFPGVPDRFSGSGSGTDFTLKISRVEAEDVGVYYCAQGTSVPFTFGQGTKLEIK"
